Patent publication US20250115886A1

Molecular target: TsCC(A)-(RGG)3-GFP scaffold (Caenorhabditis elegans)
Test: integrated fluorescence intensity in condensates over whole cell, U2OS cells

Question: Which fraction of client localized to the synthetic organelle does the source give for “Rac1-mCherry-TsCC(B) (from UniProt P63000 1-189)” here?
Answer: 50%
